Measurements taken from paper doi:10.1101/312850 (bioRxiv, 2018).

Molecular target: T1, E. coli methionine aminopeptidase (MetAP), type-1a, N-terminal poly-His-tagged (E. coli, UniProt P0AE18 1-264)
T1 sequence (looked up): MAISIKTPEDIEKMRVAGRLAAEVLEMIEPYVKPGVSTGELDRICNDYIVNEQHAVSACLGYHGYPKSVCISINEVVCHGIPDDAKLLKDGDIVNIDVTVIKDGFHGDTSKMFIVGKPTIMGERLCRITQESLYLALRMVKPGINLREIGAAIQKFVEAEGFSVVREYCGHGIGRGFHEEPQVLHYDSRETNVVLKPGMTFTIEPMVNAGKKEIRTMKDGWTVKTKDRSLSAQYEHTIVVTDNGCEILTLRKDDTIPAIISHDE
Test: cryo-EM structure

B1: E. coli peptide deformylase (PDF), N-terminal His6-tagged (enzyme, UniProt P0A6K3 1-169, looked up)
chain: MSVLQVLHIPDERLRKVAKPVEEVNAEIQRIVDDMFETMYAEEGIGLAATQVDIHQRIIVIDVSENRDERLVLINPELLEKSGETGIEEGCLSIPEQRALVPRAEKVKIRALDRDGKPFELEADGLLAICIQHEMDHLVGKLFMDYLSPLKQQRIRQKVEKLDRLKARA
B1: binds.
